The labels stand for the following.
B1: VHH L-15a (#2169, SEQ ID NO:3) (VHH)
VHH: DVQLQESGGGLVQAGGSLRLSCAASRSLRSIAVMGWFRQAPGKQREYVARITSGGYTDYADSVKGRFTIFDDSANNTVYLQMTSLKPEDTAVYHCAAGGFTEAYSGTYYPDSWGQGTQVTVSS
B2: VHH L+18a (#2173, SEQ ID NO:5) (VHH)
VHH: DVQLQASGGGLVQAGGSMRLSCAASGFTFDEFAIGWFRQAPGKEREAVSCIRSSDGSTWYADSVKGRFTISSDNAKNTVTLRMNSLKPEDTADYTCAALGSGYGCSLFTTTVGMDYWGKGTLVTVSS
B3: VHH L-14 (#2622, SEQ ID NO:2) (VHH)
VHH: DVQLQASGGGLVPAGGSLRLSCAASGHSFSSLDMAWFRQAPGREREFVAQISWSGSHTYYQDAVKGRFTISRDSAKNTGYLQMTNLKPEDTAVYYCAATYRPNTFTPAEYDYWGQGTQVTVSA
B4: VHH S-20a (#2352, SEQ ID NO:11) (VHH)
VHH: DVQLQASGGGLVQAGDSLRLSCSASGLTFSSYAMGWFRQAPGKEREFVAAISWANGGSTVYADPVKGRFTISRDNAKNTVYLQMNSLKPEDTAVYSCAAADQRVGYIEYYSGSSGKEYDYWGQGTQVTVSS

T1 sequence (P16154 whole entry): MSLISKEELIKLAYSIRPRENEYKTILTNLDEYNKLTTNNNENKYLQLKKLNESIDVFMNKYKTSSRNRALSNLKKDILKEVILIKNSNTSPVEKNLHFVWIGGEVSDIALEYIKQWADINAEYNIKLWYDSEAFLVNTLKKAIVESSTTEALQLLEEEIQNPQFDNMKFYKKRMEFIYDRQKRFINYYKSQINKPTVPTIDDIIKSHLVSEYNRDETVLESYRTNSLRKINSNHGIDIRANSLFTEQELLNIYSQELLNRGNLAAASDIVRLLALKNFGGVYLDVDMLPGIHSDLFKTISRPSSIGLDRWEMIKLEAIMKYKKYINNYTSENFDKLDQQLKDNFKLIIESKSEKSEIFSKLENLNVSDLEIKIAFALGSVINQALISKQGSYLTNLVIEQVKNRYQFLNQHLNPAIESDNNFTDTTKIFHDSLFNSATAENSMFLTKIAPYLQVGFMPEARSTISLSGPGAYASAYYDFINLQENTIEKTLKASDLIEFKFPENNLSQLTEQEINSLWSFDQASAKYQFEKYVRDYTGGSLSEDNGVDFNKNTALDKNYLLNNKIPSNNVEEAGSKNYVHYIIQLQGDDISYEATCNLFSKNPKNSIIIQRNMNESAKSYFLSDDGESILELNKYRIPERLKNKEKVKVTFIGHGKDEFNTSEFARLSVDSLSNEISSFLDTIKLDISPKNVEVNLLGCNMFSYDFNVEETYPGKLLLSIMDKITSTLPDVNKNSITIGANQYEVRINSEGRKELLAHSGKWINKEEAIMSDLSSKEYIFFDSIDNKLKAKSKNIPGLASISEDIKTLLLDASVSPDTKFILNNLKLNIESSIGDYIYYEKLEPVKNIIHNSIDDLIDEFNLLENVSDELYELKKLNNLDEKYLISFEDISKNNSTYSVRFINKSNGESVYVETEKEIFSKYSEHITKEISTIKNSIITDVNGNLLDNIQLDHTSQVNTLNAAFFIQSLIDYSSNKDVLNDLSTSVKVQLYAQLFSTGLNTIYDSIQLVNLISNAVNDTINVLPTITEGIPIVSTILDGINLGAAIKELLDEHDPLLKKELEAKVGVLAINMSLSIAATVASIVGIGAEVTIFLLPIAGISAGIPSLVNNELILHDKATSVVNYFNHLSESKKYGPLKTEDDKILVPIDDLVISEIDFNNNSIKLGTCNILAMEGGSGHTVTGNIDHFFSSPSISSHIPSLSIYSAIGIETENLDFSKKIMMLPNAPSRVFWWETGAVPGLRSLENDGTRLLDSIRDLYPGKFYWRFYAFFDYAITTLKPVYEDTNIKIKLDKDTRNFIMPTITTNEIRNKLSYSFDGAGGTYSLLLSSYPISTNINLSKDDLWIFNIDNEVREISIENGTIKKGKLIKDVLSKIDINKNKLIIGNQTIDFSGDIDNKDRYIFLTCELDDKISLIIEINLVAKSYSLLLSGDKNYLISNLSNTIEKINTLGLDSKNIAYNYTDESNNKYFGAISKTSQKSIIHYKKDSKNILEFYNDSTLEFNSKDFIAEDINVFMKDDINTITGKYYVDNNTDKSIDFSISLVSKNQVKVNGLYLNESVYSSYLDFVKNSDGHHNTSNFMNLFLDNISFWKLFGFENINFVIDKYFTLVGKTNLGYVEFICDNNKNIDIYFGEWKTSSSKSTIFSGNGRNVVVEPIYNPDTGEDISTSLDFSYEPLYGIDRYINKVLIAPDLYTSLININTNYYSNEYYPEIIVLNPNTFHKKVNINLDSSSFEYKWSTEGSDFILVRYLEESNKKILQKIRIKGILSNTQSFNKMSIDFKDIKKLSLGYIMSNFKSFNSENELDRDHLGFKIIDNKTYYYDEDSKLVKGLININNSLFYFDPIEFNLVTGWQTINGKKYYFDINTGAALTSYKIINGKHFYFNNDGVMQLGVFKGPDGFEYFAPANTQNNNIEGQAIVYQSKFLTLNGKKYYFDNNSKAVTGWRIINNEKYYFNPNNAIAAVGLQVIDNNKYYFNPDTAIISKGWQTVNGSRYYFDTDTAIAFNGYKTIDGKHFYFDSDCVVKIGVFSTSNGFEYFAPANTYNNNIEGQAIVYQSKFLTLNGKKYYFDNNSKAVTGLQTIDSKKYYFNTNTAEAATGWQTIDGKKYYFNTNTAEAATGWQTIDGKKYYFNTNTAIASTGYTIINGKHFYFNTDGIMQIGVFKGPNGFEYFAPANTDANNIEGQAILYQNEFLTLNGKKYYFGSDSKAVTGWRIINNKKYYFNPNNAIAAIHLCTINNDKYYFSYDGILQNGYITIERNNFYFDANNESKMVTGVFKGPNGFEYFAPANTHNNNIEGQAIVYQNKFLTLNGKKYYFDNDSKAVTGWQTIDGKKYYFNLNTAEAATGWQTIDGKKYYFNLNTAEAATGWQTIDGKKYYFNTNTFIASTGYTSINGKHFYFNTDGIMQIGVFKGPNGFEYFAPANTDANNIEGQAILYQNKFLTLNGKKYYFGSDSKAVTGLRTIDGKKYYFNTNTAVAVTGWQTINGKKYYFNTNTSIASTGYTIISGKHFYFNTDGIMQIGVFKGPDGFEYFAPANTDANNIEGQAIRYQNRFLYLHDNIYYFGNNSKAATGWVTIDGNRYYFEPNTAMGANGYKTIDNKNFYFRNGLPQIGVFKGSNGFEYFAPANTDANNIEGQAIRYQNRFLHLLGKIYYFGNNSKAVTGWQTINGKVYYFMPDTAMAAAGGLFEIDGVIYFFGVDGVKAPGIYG

This test concerns the target T1, ToxA-Holotoxin of Clostridium difficile (Clostridium difficile, UniProt P16154 1-2710).
T1 construct: also called Toxin A
As to the kind of experiment: ELISA, monovalent VHH on coated antigen, anti-myc detection.
Consider B1, for which the binding result was “no binding (tested: 8-1000 ng VHH)”. Regarding B2, the binding result is “no binding (tested: 8-1000 ng VHH)”. With B3 the entry was “no binding (tested: 8-1000 ng VHH)”; with B4, “no binding (tested: 8-1000 ng VHH)”.

Values taken from patent WO2013087874A1 (dated 2013).
